According to the DeepSol protein solubility set:

experiment: soluble on expression in E. coli; label from the status in PepcDB or PDB records

Q: Which “soluble on expression in E. coli” value does the source give for “MTITQRDASSADAICLSALGMQVFLDTYATQGIRESIAREALDAFSPQAFAHLLAEPATLIIVAESQGHLIGFAQFALRTDHPMLGIPTAAELQRLYVQERFTGRGVGRLLLEAAEQRAAAGNATLLWATVWVGNPRALGVYPRQGYEVKGSPRYVFQGETHENCLFAKAIVKAVR” here?
A: not soluble

Q: Which “soluble on expression in E. coli” value does the source give for “MTITSGIDVGTGAIKVVVFEVDGDQERCLGKRVERVRQRDPLKLAGDIYDDLLRETGLARADVAYCATTGEGESLTFHTGHFYSMTTHARGAIYLNPGSRAVLDTGALHGRAIRMDERGKVLAYKMTSQCASGSGQFLENIARYLGIAQDEIGSLSQRADNPEKVSGICAVLAETDVINMVSRGISSPNILRGIHESMADRLAKLLKTLGSLDGTVQMTGGLALDAGLVEAMKDAVVKAKVDVAIESHPDAIYAGAIGAALWGAFRHKRLADMAHAA” here?
A: not soluble

Q: Which “soluble on expression in E. coli” value does the source give for “MTKAKRTYEPWYWANEHTRLYMRRGYLLPGVSVEERVKEIAQRAEALTKVEGFGRKFLEYMARGWYSLATPIWANYGLRRGLPISCYGTYVEDDTASILRAVAEVGMMSKQGGGTSLYLGRLRPRGAPIRDNGESNGSFAFASLFDRVIEVFNQGSTRRGQCAAYLDVEHPDLEEWLSIQREHSPVQSLFWGVSVGDRWLEEMIAGDGEKRARWAKILKSRAEVGIPYLFFRDNANQKAPEVFRALGKTIWASNLCTEIMLPSSEEESFVCCLSSLNLLHYEEWKDTDAVETLVIFLDSVLDDFIEKAEGIPYMERAVRFAKRYRAIGLGVLGWHSYLQSQRIPLESPEAFRRNAEIFKTIRERAEEASRWLRKRHPEDELAGVGELKERRNATLLAIAPTKSSAFILGQVSPSIEPYTSNYYLKDLQKARVPFKNPFLEEVLREKGKDEEKVWRSILEHNGSVQHLDFLTDEEKAVFKTFAEISQMTLVNLAASRQKHIDQGQSLNLVIHPEAPPRDVNALVLHAWRSGLKALYYQFSQSVAQAYSRDLLLSCQACEG” here?
A: soluble

Q: With “MTKIAESKIIVGLDIGTSKIAVVVGEVLPDGVINVLGASNCPSKGIDRGGVIDLDAAVNSIQRAIEQAESVSNCQIMGVTLAISGQHITALNESGVIPLSGTVVRKEDIDAAIHIAHSIKLPDG” as the sequence, how does the “soluble on expression in E. coli” value read?
A: not soluble

Q: Which “soluble on expression in E. coli” value does the source give for “MTKKQKEILFCDYFEEWVEVYKVGAIAKITLAKYYNAAKQLRDLCPKLFISDFDRREYQRIINVYAETHEKQTVKDFHHHVKACIKDLFHDGLIDKDPTYRVVIKGAEPTRAKKRKFLQKEELSKLLQSLDMSQIGFGWFVMLVAKTGMRYAEALAITPADFDWTAQTISINKTWDYKYNKGFAKTKTLSSVRTIKIDWQIVGQFKPLIKDFPEDEPIFVEKFGDGTYKRQFNSTINNFLAVKCN” here?
A: not soluble

Q: Which “soluble on expression in E. coli” value does the source give for “MTKQLPPGQFETEKWPILHEGDVYQFDEATWNFRLFGDVKEEVSLSYQEVMQLPKTVSTIDMHCVTTWSKFDTTFEGIAFREFLRFVELDPDVKYVKIYGYLNGDRFGYSANLPLEALMGDDALFVYRWKDKHHDWQDISPKHGYPLRFIPPATFYLWKGAKWASGIRFMKEDEPGYWEERGYSMTANPFKEERFAEWVPRIRF” here?
A: not soluble

Q: Which “soluble on expression in E. coli” value does the source give for “MTKVIAITGKGGTGKTAVAALLIRSLSKKGQFILAVDADADTNLPETLGCENVKTIGDAKEFLQAEITKPRPDNPDMNKESVLQSKVYEIIEEMPGYDLLVMGRPEGSGCYCYVNNLLRGIMDKLVKNYDLVVIDAEAGLEHFSRKIIRDIDDLIVVTDASRRGFRTAERIHELVNELESNIGSIHVIANKVTDANREKLVKLAEELKLNLIGMIPLDPKIEEMDIKGIPLFEIPDDSVAAVEIENIVKKLGF” here?
A: not soluble

Q: Which “soluble on expression in E. coli” value does the source give for “MTLKTSVLALLLDNVHVLLIANPESTTQTQKLFRRVVPALMALDGVSLEARFTHYGGHAEEMVAGLTVDDFDVIIPAGGDGTVNEVINGLLGSAEGDFRNLEDLPAIAVLPTGSANVFARALGYPTDPYAAADALVELIRKNHTRTITLGTWKGDDQGTRWFAVNAGFGIDADVIARVERARSFGFAASPLLYLQVSLRAWVKTQIKPPKITVEAVDSKGHKLQKEEVPMLLASNTNPWTFLGPLPVVTNPQNSFDTGLGLFGLTSVRGFGGVAAMMHLIGVGHGRKLEKLIAKRTIAFDDAEKVTLTCDSDQRFQVDGEYEGKPTKVVLESITDAVRVYAPKTHPTPPIMNWAVHLFKHVRDFLRVRTFGI” here?
A: not soluble

Q: With “MTLNKTDRIVITLGKQIVHGKYVPGSPLPAEAELCEEFATSRNIIREVFRSLMAKRLIEMKRYRGAFVAPRNQWNYLDTDVLQWVLENDYDPRLISAMSEVRNLVEPAIARWAAERATSSDLAQIESALNEMIANNQDREAFNEADIRYHEAVLQSVHNPVLQQLSIAISSLQRAVFERTWMGDEANMPQTLQEHKALFDAIRHQDGDAAEQAALTMIASSTRRLKEIT” as the sequence, how does the “soluble on expression in E. coli” value read?
A: not soluble

Q: Which “soluble on expression in E. coli” value does the source give for “MTLPMQETRFSILLDELAAKQEAAIAPHLLADGTKVWIRKAGRHNARWRYALLGMVARYLKLGVLKPVPSLGGEPAIATESKRLYELRSAGIAVPELLAVRKNALMFGNLEGIPLDAQIRQEAEAGKSDAWLAGLEAIARVHKKRQFLSQAFARNMMSDGKNISFLDFEDDPSEVLTIAQCQARDWLCYIHSTALILKNGGLLEAAAEKWGGVLSDQPAEIQKLIAATVKPILPIRRLEHPRWGRDALRLAASISLISLADMPP” here?
A: not soluble

Q: Which “soluble on expression in E. coli” value does the source give for “MTLSILVAHDLQRVIGFENQLPWHLPNDLKHVKKLSTGHTLVMGRKTFESIGKPLPNRRNVVLTSDTSFNVEGVDVIHSIEDIYQLPGHVFIFGGQTLFEEMIDKVDDMYITVIEGKFRGDTFFPPYTFEDWEVASSVEGKLDEKNTIPHTFLHLIRKK” here?
A: soluble

Q: With “MTLTVAAPCVQTVTEPSKMEMQAESTSHITIRFTEMVGDAQKPTYGSISSAGADLYSAEDVVVPANGKLCVSTGLQIELPIGYYGRVAPRSGLAAKHFIDVGAGVIDSDYRGEVKVLLFNFNTTAFEVKTGDRIAKLICEQIGNGTYEEVKSLPSTNRGAGGFGSTGESTMNSETANPATNLERITVRFTQLNENAQTPTYGSEEAAGADLYSAEDITVPAHGKCCVSTGIQMELPFGYYGRVAPRSGLAAKHFIDVGAGVIDSDYRGEVKVLLFNFTDNAFEVKKGDRIAQLICEKIGHCVYEAASELENTDRGAGGFGSTGQNTMEAEPALKKSKTEQIKTSATSVTIQITKSNDNAQMPTYGSAEAAGADLYSAEDVTVPARGKLCVSTGIQMALPIGYYGRVAPRSGLAAKHFIDVGAGVIDSDYRGEVKVLLFNFGENDFEVKKGDRIAQLVCEQIALCTYSKVESLEVTERGAGGFGSTGQYITL” as the sequence, how does the “soluble on expression in E. coli” value read?
A: not soluble

Q: For “MTLWDRLSRLVRANLNDLLRRAEDPEKIIEQALLDMKQALREAREQVAEALAEQKRLEREVESHEREAALWEEKAREALKAGREDLAREALRRKKRALDLAEGFKAQLSEHKALTERLMTQLKALEAKIDEAEARKKLLLARKKGVEAAETVRRMESRLDQHPALEAFEEMEARILAMEDRHQALEALDQADLEKEFQALSAEKEVEEDLLRLKRELGQAAAALEHHHHHH”, which “soluble on expression in E. coli” value is on record?
A: not soluble

Q: For “MTMHETTDRLFEIAKEQGVLKPADIAERLNISQQALKNWESRGIAAKALPEVAKAFGVSETWLRTGEGSRTAPVLIDPDLPHEVKDIHRPMTWSSNDPLPDDDYVFVPYLKESCFKGGVGTYEIPDYNGYRLPFGKSTLKRKGINPDNVFCCTLTGDSMEEKIAEDAAIAVDTGETAIRDGKIYAFAQDGMFRVKYLIRQPGNSVLIRSHNSGFYGDENAPLDSLTVIGRVFWWSVLD”, which “soluble on expression in E. coli” value is on record?
A: not soluble

Q: Which “soluble on expression in E. coli” value does the source give for “MTMPVNTIMGLFAKSPIKPLQRHVVCVNECCSHLINFFEVCNKGDWEKAGEIRAQISHLEKEADVLKREIRLKLPRGLFMPVDRSDMLELLTQQDKLANLAKDIAGRVYGRQLVIPEPLQENFIAYVRRCLDAANQAQNVINELDELLETGFKGREVTLVAEMIHQLDVIEDDTDSMQIRLRQQLMAIESKMNPIDVMFLYKILEWVGGIADQAQRVGARLELMLSRS” here?
A: not soluble

Q: With “MTMQFKIPTVLRSQEIIDKSFSRASKIEEPYFPDKVERIKKEVQDRISAIESISCSHLDKLVKRFPSIERMHPFYRSLIDLMFDVDQYKIALSKVDATSANIKRISTEYIRKLRPVKDVGNANQIMRAYYGRFASLIEDLNETLLFLGRCRDYIRKLPEVRTDLKTYIIAGMPNVGKSSLLASLTTAKPKIASYPFTTKNVIIGYNESGSERIQFIDTPGILDRDFSEMNEIEKNAILAIRFIEGKIIFLFDYSTESLYTREQQEHLYEQIKNNINPNIIRVQTKLDISTEKVENIAISVNIESGLEPLRKIIFDGGVIDVRGRNLEHHHHHH” as the sequence, how does the “soluble on expression in E. coli” value read?
A: soluble

Q: For “MTMRNFDLSPLMRQWIGFDKLANALQNAGESQSFPPYNIEKSDDNHYRITLALAGFRQEDLEIQLEGTRLSVKGTPEQPKEEKKWLHQGLMNQPFSLSFTLAENMEVSGATFVNGLLHIDLIRNEPEPIAAQRIAISERPALNS”, which “soluble on expression in E. coli” value is on record?
A: not soluble

Q: Which “soluble on expression in E. coli” value does the source give for “MTNFIDRRLNSKNKSTVNRQRFLRRYKNQIKKSVSDAINQRGVTDIDSGESIVIPNRDLSEPTFHQGDGGVKDRVHPGNDQFSTGDRIPRPPKQQGQGGGQGDASDSGEGEDDFTFSISKEEYLNLLFEDLELPNLERNQLDKLIEYKTVRSGFCAEGVASNIDIVKSLQGSIARRIAMTASKRKQIKVLELELQALNNDKHDNIQRKRDLIAEIETLKNKISKVPFIDTFDLRFRNYAKQAVPTSKAVMFCLMDVSGSMDQATKEMAKRFYILLYLFLSRTYKNIDVVYIRHHTQAKEVDEHEFFYSQETGGTIASSALELMNDIITERYNDNQWNIYGAQASDGDNWADDSPRCQALLEQQILPKSRYFSYIEITQRAHQTLWKHYQQVEESHTNFAMQHIKSVADIYPVFRKFFKKNTKSAALEHHHHHH” here?
A: soluble

Q: With “MTNFQRARSEEQRAVRRQAILDTTAAMLEEMPVGEVSLNELSRRVGLAKSNVLRYFESREAILLELLDRAWQQWVADLPALVHAGVDQGAPVSRRAEQFAAVIAASLAGRQVLCDLLSAQAGVLEHNVSPQVAARYKRAAVANVADIAALAHQHLPELGASAPQLTAVMIMAVGAVWTHARPSPAMLSAYEADPSLTAFKLDFVTTLQEMLATLTAGTIARESA” as the sequence, how does the “soluble on expression in E. coli” value read?
A: not soluble

Q: Which “soluble on expression in E. coli” value does the source give for “MTNLTNYHSHCLYCDGRANMEDFIRFAISEGFSSYGISSHAPLPFSTAWTMEWDRMDDYLSEFARLKEKYADKIELAIGLEIDYLNEESHPAIPRFQELPLDYRIGSVHMLYSPQGKVVDIDTPADIFRQLIDAHFEGDLDYVVHLYYKNLLRMVELGGFDILGHADKMHYNASCYRPGLLDEPWYDALVRDYFAEIARHGYIVEINTKSYHDLGTFYPNERYFPLLKELGIRVQVNSDAHYPERINNSRAEALAALKKVGFDTVVEWHGGQWKDMPLLQLEHHHHHH” here?
A: soluble

Q: With “MTNNITPIHEYKKYWAECFGTAPFLPTSRKEMDALGWDSCDIIIVTGDAYVDHPSFGMAIIGRLLEAQGFRVGIIAQPEWQNKNAFMQLGKPNLFFGITAGNMDSMINRYTADKKLRHDDAYTPNNEGGKRPDRATLVYSQRCREAYKEVPIVLGGIEASLRRVAHYDYWSDKVRRSVLFDAKADILLFGNAERALVEVAHRIANGEDISTMTNIRGTAVNLPAAPEGYTVIDSSRIEKPRKEAFVPKNPYEVETQCETKKDEPVAQPITIRPSRHDAATTAVRLPSFEKLRNDRILYAHASRVLHLETNPYSGRALLQSHGDRELWVNQAPIPLTTEEMDFVFGLPYARVPHPMYGKAKIPAYDMIKTS” as the sequence, how does the “soluble on expression in E. coli” value read?
A: not soluble
